Data from patent publication US20050043231A1, “Therapy for growth hormone induced insulin resistance in juveniles with growth disorders” (priority 2001, published 2005).

Tests used:
[1] = Fasting serum IGF-I, IGF-II and leptin and BMI SDS in short SGA children on rhGH therapy; type: in vivo, human
From the text: All subjects were born SGA, had marked short stature (height approximately—3 standard deviation score (SDS)) with a height velocity<25th percentile for >1 year prior to starting rhGH therapy. SGA was defined as a birth weight<10th percentile for gestational age. Additional enrolment criteria for inclusion into the study included; no change in Tanner pubertal stage and/or testicular volumes throughout the study period, normal GH response to clonidine stimulation (defined as a GH level≧7 μgm/L), absence of both islet cell antibodies (<10 Juvenile Diabetes Foundation units) and insulin autoantibodies to exclude type 1 prediabetes. […] Body mass index (BMI) was used as a measure of relative obesity and expressed as BMI SDS.
(§1) Plasma glucose concentration was measured using a Hitachi 911 automated random access analyser (Tokyo, Japan) with an interassay coefficient variation of 1.2% (Trinder P. Determination of blood glucose using an oxidase-peroxidase system with a non-carcinogenic chromogen. J Clin Pathol 1995; 22: 158-61). Insulin was determined by Abbotts IMX microparticle enzyme immunoassay with an interassay coefficient of variation of <5%. Plasma IGF-I was measured using an established IGF binding protein blocked radioimmunoassay (Blum et al. Radioimmunoassays for insulin-like growth factors and their binding proteins. Growth Reg. 1994; 4: (Suppl.) 11-19). […]

[2] = Insulin sensitivity by Bergman's minimal model (frequently sampled iv glucose tolerance test with tolbutamide) in short SGA children on rhGH therapy; type: in vivo, human
From the text: All subjects were born SGA, had marked short stature (height approximately—3 standard deviation score (SDS)) with a height velocity<25th percentile for >1 year prior to starting rhGH therapy. SGA was defined as a birth weight<10th percentile for gestational age. Additional enrolment criteria for inclusion into the study included; no change in Tanner pubertal stage and/or testicular volumes throughout the study period, normal GH response to clonidine stimulation (defined as a GH level≧7 μgm/L), absence of both islet cell antibodies (<10 Juvenile Diabetes Foundation units) and insulin autoantibodies to exclude type 1 prediabetes. Prepubertal subjects were defined as males with a testicular volume<4 ml and girls with tanner stage 1 breast development. Subjects were excluded if; a chromosomal, intrauterine infection or syndromal cause for SGA was identified, a first degree relative had type 2 diabetes mellitus, or medical therapy was taken that was known to influence SI. Subjects were recruited from the Endocrinology Clinics at Starship Children's Hospital. Birth weight and length were converted into SDSs to correct for age and sex. Body mass index (BMI) was used as a measure of relative obesity and expressed as BMI SDS.
Insulin sensitivity (SI) was measured in 11 subjects prior to and 12 subjects during rhGH treatment. In addition five prepubertal subjects agreed to have rhGH therapy suspended for three months with reassessment of SI. Bergman's minimal model was used to measure SI, acute insulin response (AIR) and glucose effectiveness (Sg). The data was provided from a 90 min frequently sampled iv glucose tolerance test with tolbutamide, which had been modified and validated for use in children as previously described (Cutfield et al. 1990). SI is a measure of insulin mediated glucose uptake, AIR a measure of insulin secretory capacity and Sg is a measure of glucose stimulated glucose uptake independent of insulin. These three indices are characteristic measurements useful for determining glycemic states. Plasma glucose and insulin was measured from all samples and the values used for measurement of SI, AIR and Sg. Approval for the study was provided by the North Health Ethics Committee and signed, informed consent was obtained from subjects and their parents.
as §1, with “11-19). The IGF-I detection limit was 1.3 ng/ml with intra-assay and inter-assay coefficients of variation of 5.0% and 9.2%, respectively. Plasma IGF-II samples were intially treated with acid-ethanol cryoprecipitation to remove IGF II from binding proteins. IGF II was then measured by RIA using a highly specific polyclonal antiserum (Blum et al. A specific radioimmunoassay for insulin-like growth factor II. The interference of IGF binding proteins can be blocked by excess IGF-I. Acta Endcrinol (Copenh) 1988; 129:427-435).” for “11-19).”

[3] = Fasting plasma insulin, glucose, IGF-I and FFA in IUGR rats treated for 28 days; type: in vivo, rat
Protocol: (§2) Studies of insulin resistance in vivo in rats were carried out in animals in which insulin resistance was produced by fetal undernutrition (“IUGR”) as described previously (Woodall et al. 1996). Virgin Wistar rats (age 100±5 days) were time mated using a rat estrus cycle monitor to assess the stage of estrus of the animals prior to introducing the male. After confirmation of mating, rats were housed individually in standard rat cages containing wood shavings as bedding and free access to water. All rats were kept in the same room with a constant temperature maintained at 25° C. and a 12-h light: 12-h darkness cycle. Animals received an undernutrition diet throughout pregnancy that was 30% of an ad libitum (“AD”) diet. Food intake and maternal weights were recorded daily until birth. A total of 40 male pups were recruited for the study. After birth, pups were weighed and litter size recorded. Litter size was then adjusted to eight pups to ensure standardised nutrition. Male pups from undernourished mothers were cross-fostered onto dams which received AD feeding throughout pregnancy to ensure post-natal viability. After weaning all male offspring were fed a hypercaloric diet ad libitum for the remainder of the study (total digestible energy 4846 kcal/kg, protein 31.8%, fat 30%, fat/energy ratio 55.72%, protein/energy ratio 26.25%). The fat content of the hypercaloric diet was chosen to be typical of many Western diets known to be associated with abnormalities in glucose metabolism in humans.
At 25 days of age, three days after weaning, study animals were enrolled into treatment groups for 28 days. The study groups were weight matched. The 40 study males were divided into four treatment groups, each of 10 animals; (a) no treatment (control group), (b) troglitazone and metformin, (c) recombinant bovine GH (GH) and (d) GH, troglitazone and metformin. […]
(§3) Troglitazone was added to food at approximately 100 mg/kg/day based on daily food consumption. Metformin was mixed with drinking water and the dose calculated to 500 mg/kg/day based on daily water consumption. […] Body weight and food intake of all offspring were measured daily for the first 2 weeks then every second day until study completion. […]
At day 53, systolic blood pressure measurements were recorded using tail cuff plethysmography (Blood pressure analyser IITC, Life Science, Woodland Hills, Calif., USA) as described previously (Vickers et al. 2000). […] Pulses in pressure were recorded during deflation at a rate of 3 mmHg/sec and the reappearance of a pulse was used to determine systolic blood pressure. […]
IGF-I in rat blood plasma was measured using an IGF binding protein (IGFBP)-blocked rat RIA described previously (Blum et al. 1994). […] Rat insulin was measured by an in-house radioimmunoassay (Vickers et al. 2000, Lewis et al. 1999). […]

[4] = Growth and body composition in IUGR rats; type: in vivo, rat
Protocol: as §2
At 25 days of age, three days after weaning, study animals were enrolled into treatment groups for 28 days. The study groups were weight matched. […]
as §3
Statistical comparisons were carried out using the statistical package SAS (version 8) for personal computers. […] For analysis of growth and body composition data (BMI and % retroperitoneal fat), each of the four treatment groups were analysed as separate treatments and then Dunnetts test was used to compare the three active treatments with the control group. Data are expressed as mean±SEM, with p<0.05.
Body composition was examined in several different ways; body mass index (BMI), retroperitoneal fat expressed as a percentage of body weight (retroperitoneal fat %) and gonadal fat expressed as a percentage of body weight (gonadal fat %). […]

[5] = Tail cuff systolic blood pressure in IUGR rats; type: in vivo, rat; settings: day 53, tail cuff, vs no treatment group and GH treated group
Protocol: Studies of insulin resistance in vivo in rats were carried out in animals in which insulin resistance was produced by fetal undernutrition (“IUGR”) as described previously (Woodall et al. 1996). Virgin Wistar rats (age 100±5 days) were time mated using a rat estrus cycle monitor to assess the stage of estrus of the animals prior to introducing the male. After confirmation of mating, rats were housed individually in standard rat cages containing wood shavings as bedding and free access to water. All rats were kept in the same room with a constant temperature maintained at 25° C. and a 12-h light: 12-h darkness cycle. Animals received an undernutrition diet throughout pregnancy that was 30% of an ad libitum (“AD”) diet. Food intake and maternal weights were recorded daily until birth. […] After birth, pups were weighed and litter size recorded. […]
as §3
At day 53, systolic blood pressure measurements were recorded using tail cuff plethysmography (Blood pressure analyser IITC, Life Science, Woodland Hills, Calif., USA) as described previously (Vickers et al. 2000). […]

Molecule | adverse event: type 2 diabetes mellitus ([1]; one subject, 12 months after cessation of 4.1 years of rhGH therapy) | fasting serum IGF-I level ([1]; with rhGH therapy, 127±37 pretreatment, p<0.001) [μgm/l] | compensatory rise in AIR (acute insulin response) ([2]; during rhGH therapy, p<0.009) [%] | recovery of SI after rhGH suspended ([2]; five prepubertal subjects, three months after rhGH therapy was suspended) | fall in SI during rhGH therapy, prepubertal children ([2]; prepubertal subjects) [%] | fall in SI during rhGH therapy, pubertal subjects ([2]; pubertal subjects) [%] | fall in SI (insulin sensitivity) during rhGH therapy ([2]; short SGA children, all subjects, 21±6 months of rhGH, p=0.018) [%] | fasting insulin levels ([3]; 28 days of treatment, GH vs no treatment p<0.0001, GH plus sensitisers vs GH alone p=0.01) | plasma free fatty acids (FFA) ([3]; fasting) | plasma glucose ([3]; fasting, no treatment group 7.8±0.3, p<0.0001) [mmol/L] | fasting IGF-I levels ([3]; p<0.0001) | nose to anus length ([4]; IUGR rats at study end, no treatment group 179±2) [mm] | gonadal fat % (percentage of body weight) ([4]; IUGR rats, across the four groups) | retroperitoneal fat % (percentage of body weight) ([4]; IUGR rats, no treatment group 0.97±0.06%) [%] | BMI ([4]; IUGR rats, no treatment group 6.8±0.2) | systolic BP [5]
rhGH: recombinant human growth hormone given to short SGA children | developed type 2 diabetes mellitus | 189±46 | 123±59 | no recovery in SI | 48 | 35 | 44±10 | – | – | – | – | – | – | – | – | –
GH: recombinant bovine GH, subcutaneously 10 μgm/gm/day in two divided doses in IUGR rats (protein, UniProt P01246 27-217, looked up) Somatotropin: AFPAMSLSGLFANAVLRAQHLHQLAADTFKEFERTYIPEGQRYSIQNTQVAFCFSETIPAPTGKNEAQQKSDLELLRISLLLIQSWLGPLQFLSRVFTNSLVFGTSDRVYEKLKDLEEGILALMRELEDGTPRAGQILKQTYDKFDTNMRSDDALLKNYGLLSCFRKDLHKTETYLRVMKCRRFGEASCAF | – | – | – | – | – | – | – | substantially and significantly increased | fall observed in plasma FFA | 11.9 ± 0.9 | higher | 188±1 | increase in gonadal fat % | 0.69±0.05 | 6.9±0.1 | trend of increasing systolic BP
